Values joined by “and” are separate entries in the source; they are usually repeats but may differ in a detail not shown here. Equal entries are not always repeated.

Here are results for one molecule from EP1255844B1 (MILLENNIUM PHARMACEUTICALS, INC., dated 2007).

Experiment [1] deals with T1, human CC-chemokine receptor 2 (CCR2) as naturally expressed on THP-1 cells, THP-1 cell membranes, fresh human … (human, UniProt P41597 1-374).
T1 construct: whole, on cells; In one assay membranes of THP-1 cells were used instead of whole cells; also called CKR-2; MCP-1RA
As to the kind of experiment: competition with 0.1 nM [125I]MCP-1 on fresh human PBMC, filtration and scintillation counting.

The target in experiment [2] is T1, human CC-chemokine receptor 2 (CCR2) as …. As to the kind of experiment: competition with 0.1 nM [125I]MCP-1 on THP-1 cell membranes, filtration and scintillation counting.

T1 sequence (P41597 whole entry): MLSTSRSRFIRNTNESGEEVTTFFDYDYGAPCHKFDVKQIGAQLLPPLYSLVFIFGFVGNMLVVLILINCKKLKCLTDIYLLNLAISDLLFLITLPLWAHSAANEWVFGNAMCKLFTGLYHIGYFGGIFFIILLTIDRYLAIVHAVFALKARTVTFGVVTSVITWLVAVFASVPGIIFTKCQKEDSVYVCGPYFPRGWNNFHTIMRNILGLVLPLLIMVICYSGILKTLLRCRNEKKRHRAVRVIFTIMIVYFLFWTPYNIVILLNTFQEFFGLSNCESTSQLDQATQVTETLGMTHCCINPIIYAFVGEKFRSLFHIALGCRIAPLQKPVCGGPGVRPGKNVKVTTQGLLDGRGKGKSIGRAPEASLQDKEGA

B1: murine monoclonal antibody LS132.1D9 (1D9) (antibody, V domains shown)
VH: EVQLVESGGGLVQPKGSLKLSCAASGFSFNAYAMNWVRQAPGKGLEWVARIRTKNNNYATYYADSVKDRYTISRDDSESMLFLQMNNLKTEDTAMYYCVTFYGNGVWGTGTTVTVSS
VL: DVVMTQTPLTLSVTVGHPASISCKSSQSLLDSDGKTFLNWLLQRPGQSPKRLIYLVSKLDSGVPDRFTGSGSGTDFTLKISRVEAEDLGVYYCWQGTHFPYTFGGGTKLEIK
notes: Whole mouse monoclonal antibody from a hybridoma (supernatant or antibody); Kappa light chain; The controls are called isotype-matched and murine IgG2a, which implies IgG2a; also called mAb 1D9; mus-1D9
A word on the IC50: it is the midpoint of a concentration-inhibition curve. Read a low IC50 as greater potency in that assay. As to B1, the 50% inhibitory concentration (IC50) in experiment [1] is 0.04 µg/mL and ~0.2 nM; in experiment [2] it was ~0.004 µg/mL and ~0.02 nM.
